In assay [1] the target is T1, recombinant human PCSK9-His protein (Immunogen A) (human, UniProt Q8NBP7 31-692, limits assumed, biotinylated in the ELISA assays).
T1 construct: also called hPCSK9-His; His-tagged hPCSK9; not shown: His tag
The assay is described as follows: BLI, Octet Red 96; antibody on AHC sensor.

Assay [2] has as its target T1, recombinant human PCSK9-His protein …. The assay is described as follows: SPR, Biacore T200; antibody captured by anti-human Fc.
Procedure: Anti-human Fc IgG was immobilized on flow cells 1 and 2: HBS-EP+(10 mM HEPES, 150 mM NaCl, 3 mM EDTA, 0.05% P20, pH 7.4) was used as running buffer, and the immobilization of anti-human Fc IgG was carried out using the immobilization wizard template. Flow cells 1 and 2 of a Series S CM5 sensor chip were activated with freshly-mixed 50 mmol/L NHS and 200 mmol/L EDC. 20 ug/mL of anti-human Fc IgG diluted in 10 mM NaAC (pH 4.5) was injected into the activated flow cells 1 and 2. The remaining active coupling sites were blocked with 1M ethanolamine.
KD measurements were carried out with HBS-EP+ as the running buffer. Each antibody was injected over the CM5 sensor flow cell 2 with a flow rate of 10 uL/min to reach response 230 RU. […] Buffer flow was maintained for 400 seconds for dissociation measurements (30 uL/min). To remove the tested antibody from the surface, 10 mM glycine-HCl pH 1.5 was injected for 20 seconds (30 ulJmin). Flow cell 1 was used as reference flow cell. […] The KD value for each antibody was evaluated using Biacore T200 evaluation software 1.0, and the data was fit with a 1:1 binding model.
The target in assay [3] is T2, recombinant cyno monkey PCSK9 protein (cyno monkey, UniProt A8T666 31-692 (rhesus entry), limits assumed, biotinylated in the ELISA assays).
T2 construct: also called cyno PCSK9; Cyno Monkey PCSK9-His
T2 sequence (A8T666 31-692 limits assumed): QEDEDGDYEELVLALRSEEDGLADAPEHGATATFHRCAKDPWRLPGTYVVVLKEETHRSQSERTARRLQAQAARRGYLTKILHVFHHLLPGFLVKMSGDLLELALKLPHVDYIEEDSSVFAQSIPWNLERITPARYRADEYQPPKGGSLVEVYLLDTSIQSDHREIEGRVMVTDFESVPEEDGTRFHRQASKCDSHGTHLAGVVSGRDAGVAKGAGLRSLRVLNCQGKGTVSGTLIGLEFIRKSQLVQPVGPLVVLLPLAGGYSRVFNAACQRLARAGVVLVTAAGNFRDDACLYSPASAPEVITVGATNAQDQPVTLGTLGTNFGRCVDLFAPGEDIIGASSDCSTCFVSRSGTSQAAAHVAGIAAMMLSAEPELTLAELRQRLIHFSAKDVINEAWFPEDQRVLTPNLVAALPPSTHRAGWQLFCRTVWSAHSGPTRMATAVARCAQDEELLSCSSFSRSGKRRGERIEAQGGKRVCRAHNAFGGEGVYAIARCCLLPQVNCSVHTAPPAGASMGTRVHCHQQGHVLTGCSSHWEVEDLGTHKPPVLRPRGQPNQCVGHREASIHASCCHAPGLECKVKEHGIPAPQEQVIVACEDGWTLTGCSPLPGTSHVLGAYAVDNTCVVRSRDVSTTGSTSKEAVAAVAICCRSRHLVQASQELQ
The assay is described as follows: ELISA; antibody 0.0067 nM.

Assay [4] has as its target T1, recombinant human PCSK9-His protein …. The assay is described as follows: ELISA of PCSK9 binding to LDLR ECD; antibody 1.6 nM.
Assay [5] deals with T2, recombinant cyno monkey PCSK9 protein. The assay is described as follows: ELISA; antibody 0 nM.
Assay [6] concerns the target T1, recombinant human PCSK9-His protein …. The experiment in a line: ELISA of PCSK9 binding to LDLR ECD; antibody 200 nM.
The target is the same in assay [7]. The assay is described as follows: ELISA; antibody 0.00067 nM.
For assay [8] the target is unchanged. The experiment in a line: ELISA; antibody 0.0067 nM.
For assay [9] the target is unchanged. The assay is described as follows: ELISA; antibody 0 nM.
Assay [10] deals with T2, recombinant cyno monkey PCSK9 protein. The experiment in a line: ELISA; antibody 0.067 nM.
For assay [11], the target named is T1, recombinant human PCSK9-His protein …. The assay is described as follows: ELISA of PCSK9 binding to LDLR ECD; antibody 0.01 nM.
The target in assay [12] is T2, recombinant cyno monkey PCSK9 protein. The experiment in a line: ELISA; antibody 66.67 nM.
For assay [13], the target named is T1, recombinant human PCSK9-His protein …. The experiment in a line: ELISA; antibody 0.67 nM.
The target is the same in assay [14]. The experiment in a line: ELISA; antibody 66.67 nM.
Assay [15] addresses T2, recombinant cyno monkey PCSK9 protein. The assay is described as follows: ELISA; antibody 0.67 nM.
The target of assay [16] is T1, recombinant human PCSK9-His protein …. The assay is described as follows: ELISA; antibody 6.67 nM.
For assay [17] the target is unchanged. The experiment in a line: ELISA; antibody 0.067 nM.
The target is the same in assay [18]. The assay is described as follows: ELISA; antibody 0.000067 nM.
The target of assay [19] is T2, recombinant cyno monkey PCSK9 protein. The experiment in a line: ELISA; antibody 0.000067 nM.
Assay [20] shares this target. The assay is described as follows: ELISA; antibody 0.00067 nM.
Assay [21] addresses T1, recombinant human PCSK9-His protein …. The experiment in a line: ELISA of PCSK9 binding to LDLR ECD; antibody 40 nM.
For assay [22] the target is unchanged. The assay is described as follows: ELISA of PCSK9 binding to LDLR ECD; antibody 0 nM.
Assay [23] has the same target. The assay is described as follows: ELISA of PCSK9 binding to LDLR ECD; antibody 0.06 nM.
Assay [24] has as its target T2, recombinant cyno monkey PCSK9 protein. The experiment in a line: ELISA; antibody 6.67 nM.
Assay [25] deals with T1, recombinant human PCSK9-His protein …. The assay is described as follows: ELISA of PCSK9 binding to LDLR ECD; antibody 0.32 nM.

B1: 103C11E8, fully human anti-PCSK9 antibody (antibody, human IgG1, V domains shown)
VH: QVQLQESGPGLVKPSGTLSLTCAVSGGSISSSNWWSWVRQPPGKGLEWIGEIYHSGSTNYNPSLKSRVTISVDKSKNQFSLKLSSVTAADTAVYYCARGIAVAGTDVMDAWGQGASVTVSS
VL: EIVLTQSPATLSLSPGERATLSCRASQSVSSYLVWYQQKSGQAPRLLIYGTSNRATGIPARFSGSGSGTDFTLTISSLEPEDFALYYCQQRGNWMYTFGQGTKLEIK
For B1, the Kd worked out at 2.17 nM in assay [1] and 1.42 nM in assay [2].

B2: 76A1B11, fully human anti-PCSK9 antibody (antibody, human IgG1, V domains shown)
VH: QVQLVESGGGVVQPGRSLRLSCAATGFTFSIYGMHWVRQAPGKGLEWVAVIWYDGSNKYYADSVKGRFIISRDNSKNTLYLQMNSLRVEDTAVYYCVSDYFGSGNSYYYYGMDVWGQGTTVTVSS
VL: DIQMTQSPSSLSASVGDRVTITCRASQVISNYLAWYQQKPGKVPKLLIYTASTLQSGVPSRFSGSGSGADFTLTISSLQPEDVATYYCQKYNSAPYTFGQGTKLEIK
As to B2, the OD450 nm in [3] stood at 0.24 OD450 nm; in [4] it was 2.19 OD450 nm; in assay [5] it was 0.07 OD450 nm; in assay [6], 1.27 OD450 nm; in [7] it was 0.07 OD450 nm; in assay [8], 0.14 OD450 nm. Further, the OD450 nm in assay [9] came out at 0.06 OD450 nm; in [10], 1.46 OD450 nm; in [11], 2.26 OD450 nm; in assay [12], 3 OD450 nm; in assay [13], 2.77 OD450 nm; in [14], 2.97 OD450 nm. The OD450 nm in [15] stood at 2.91 OD450 nm; in assay [16], 2.97 OD450 nm; in assay [17] it was 0.8 OD450 nm; in [18], 0.06 OD450 nm; in assay [19] it was 0.11 OD450 nm; in assay [20] it was 0.08 OD450 nm. For the same molecule, the OD450 nm in [21] came to 1.35 OD450 nm; in [22], 2.38 OD450 nm; in assay [23], 2.28 OD450 nm; in assay [24] it was 3 OD450 nm; in [25], 2.31 OD450 nm. Further, the Kd in assay [1] came out at 12.1 nM. Further, the koff in assay [1] turned out to be 0.000643 s⁻¹. In assay [1], the kon worked out at 53100 M⁻¹ s⁻¹.

The values above are taken from US20180355059A1 (PHARMAEXPLORER, published 2018).
